Test results reported in paper PMC9359501 (Med (New York, N.Y.), 2022).

B1: LY-CoV1404 (bebtelovimab) reference clone neutralizing antibody (antibody, V domains shown)
VH: QITLKESGPTLVKPTQTLTLTCTFSGFSLSISGVGVGWLRQPPGKALEWLALIYWDDDKRYSPSLKSRLTISKDTSKNQVVLKMTNIDPVDTATYYCAHHSISTIFDHWGQGTLVTVSS
VL: QSALTQPASVSGSPGQSITISCTATSSDVGDYNYVSWYQQHPGKAPKLMIFEVSDRPSGISNRFSGSKSGNTASLTISGLQAEDEADYYCSSYTTSSAVFGGGTKLTVL
B2: S309 (sotrovimab) reference clone neutralizing antibody (antibody, V domains shown)
VH: not shown
VL: EIVLTQSPGTLSLSPGERATLSCRASQTVSSTSLAWYQQKPGQAPRLLIYGASSRATGIPDRFSGSGSGTDFTLTISRLEPEDFAVYYCQQHDTSLTFGGGTKVEIK

Target: SARS-CoV-2 Spike S1 (Omicron), His-tagged (SARS-CoV-2 Omicron B.1.1.529 BA.1, strain)
Assay: SPR

Binder | Kd [nM] | koff [s⁻¹] | kon [M⁻¹ s⁻¹]
B1 | 85.5 | 0.00677 | 79200
B2 | 24.5 | 0.000395 | 16200
